Assays:
[1] = molecular target: human HER2 on cells (human) (UniProt P04626)
[2] = molecular target: HER2 extracellular domain (ECD) (UniProt P04626); assay: HER2 KD relative to 4D5 (WT); assay not stated
[3] = molecular target: HER2 extracellular domain (ECD) (UniProt P04626); assay: HER2 binding affinity of the HER2 arm; assay and form of HER2 not stated on the sheet or in the legend

SKBR3 EC50 fold (relative to 4D5) [1]: 9900 fold | KD fold [2]: 31.2 fold | Kd [3]: 15.6 nM
Substance: hu4D5.v5 (bispecific antibody)
EC50 of SKBR3 target cell killing [1]: 0.075 µg/mL
